In patent US20250145711A1 (Janssen / Centocor, published 2025) one finds EC50 data, which are given here for one molecule.

One may read the EC50 as the concentration giving half of the maximal effect. Low values mean a more potent agent, high ones a less potent agent.

In experiment [1] the target is T1, human PSMA on prostate cancer cell lines (22RV1, C4-2B) (human, UniProt Q04609 1-750).
T1 construct: also called PSMA-expressing cell lines
Briefly: flow cytometry on 22RV1 cells; 22RV1 cells. The procedure:
(§1) 22RV1 and C4-2B cells were plated at 50,000 cells per well in 50 μl of assay medium (RPMI, 10% HI FBS) in V bottom plates. Serial dilutions of antibodies were prepared in assay medium with 50 μl of antibody dilutions added to the plates containing cells. The plates were incubated for 60 min at 37° C. at which time 100 μl of staining buffer (Becton Dickinson Cat #554657) was added to all wells of each plate. The plates were centrifuged at 300×G for 5 minutes and the medium was removed from the wells. 200 μl of staining buffer was added to all wells of each plate. The plates were centrifuged at 300× G for 5 minutes and the medium was removed from the wells. 50 μl of 2 μg/ml AlexaFluor647-labeled goat anti-human Fc was added to all wells of the plates and the plates were incubated for 30 minutes at 4° C. 150 μl of staining buffer was added to all wells of each plate. The plates were centrifuged at 300× G for 5 minutes and the medium was removed from the wells.
In general terms: A flow cytometer gives signals particle by particle.

Experiment [2] concerns the target T1, human PSMA on prostate cancer cell …. Briefly: flow cytometry on C4-2B cells. The procedure:
as §1

T1 sequence (Q04609 whole entry): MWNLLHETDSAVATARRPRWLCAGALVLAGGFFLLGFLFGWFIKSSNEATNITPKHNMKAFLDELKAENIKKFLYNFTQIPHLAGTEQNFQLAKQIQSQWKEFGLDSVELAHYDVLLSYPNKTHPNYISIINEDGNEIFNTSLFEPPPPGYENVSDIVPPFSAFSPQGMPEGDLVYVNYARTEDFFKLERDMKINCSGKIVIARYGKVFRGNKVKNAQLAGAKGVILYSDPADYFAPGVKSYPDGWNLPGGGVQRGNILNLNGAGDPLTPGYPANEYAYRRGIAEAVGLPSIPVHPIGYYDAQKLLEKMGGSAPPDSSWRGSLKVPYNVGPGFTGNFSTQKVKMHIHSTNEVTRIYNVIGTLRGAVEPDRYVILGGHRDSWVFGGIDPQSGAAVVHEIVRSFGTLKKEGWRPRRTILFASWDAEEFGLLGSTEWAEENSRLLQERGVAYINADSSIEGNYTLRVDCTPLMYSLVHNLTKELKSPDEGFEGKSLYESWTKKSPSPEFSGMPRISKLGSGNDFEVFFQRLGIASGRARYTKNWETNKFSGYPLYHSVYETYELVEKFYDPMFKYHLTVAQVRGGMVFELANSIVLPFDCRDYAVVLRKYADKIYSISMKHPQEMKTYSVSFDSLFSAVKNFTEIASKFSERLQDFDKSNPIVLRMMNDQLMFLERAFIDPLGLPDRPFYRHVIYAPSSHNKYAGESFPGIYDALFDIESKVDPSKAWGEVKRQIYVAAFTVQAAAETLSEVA

B1: PS3B918 (bispecific antibody, human IgG1, lambda, L234A L235A)
heavy 1: QVQLQQSGPRLVRPSQTLSLTCAISGDSVFNNNAAWSWIRQSPSRGLEWLGRTYYRSKWLYDYAVSVKSRITVNPDTSRNQFTLQLNSVTPEDTALYYCARGYSSSFDYWGQGTLVTVSSASTKGPSVFPLAPSSKSTSGGTAALGCLVKDYFPEPVTVSWNSGALTSGVHTFPAVLQSSGLYSLSSVVTVPSSSLGTQTYICNVNHKPSNTKVDKKVEPKSCDKTHTCPPCPAPEAAGGPSVFLFPPKPKDTLMISRTPEVTCVVVSVSHEDPEVKFNWYVDGVEVHNAKTKPREEQYNSTYRVVSVLTVLHQDWLNGKEYKCKVSNKALPAPIEKTISKAKGQPREPQVYTLPPSREEMTKNQVSLTCLVKGFYPSDIAVEWESNGQPENNYKTTPPVLDSDGSFLLYSKLTVDKSRWQQGNVFSCSVMHEALHNHYTQKSLSLSPG
light 1: QSALTQPASVSGSPGQSITISCTGTSSNIGTYKFVSWYQQHPDKAPKVLLYEVSKRPSGVSSRFSGSKSGNTASLTISGLQAEDQADYHCVSYAGSGTLLFGGGTKLTVLGQPKAAPSVTLFPPSSEELQANKATLVCLISDFYPGAVTVAWKADSSPVKAGVETTTPSKQSNNKYAASSYLSLTPEQWKSHRSYSCQVTHEGSTVEKTVAPTECS
heavy 2: EVQLVESGGGLVKPGGSLRLSCAASGFTFSRYNMNWVRQAPGKGLEWVSSINSNSRYIYYADSVKGRFTISRDSAKNSLYLQMNSLRAEDTAVYYCAKTMGDYYYYYGMDVWGQGTTVTVSSASTKGPSVFPLAPSSKSTSGGTAALGCLVKDYFPEPVTVSWNSGALTSGVHTFPAVLQSSGLYSLSSVVTVPSSSLGTQTYICNVNHKPSNTKVDKKVEPKSCDKTHTCPPCPAPEAAGGPSVFLFPPKPKDTLMISRTPEVTCVVVSVSHEDPEVKFNWYVDGVEVHNAKTKPREEQYNSTYRVVSVLTVLHQDWLNGKEYKCKVSNKALPAPIEKTISKAKGQPREPQVYTLPPSREEMTKNQVSLTCLVKGFYPSDIAVEWESNGQPENNYKTTPPVLDSDGSFFLYSRLTVDKSRWQQGNVFSCSVMHEALHNHYTQKSLSLSPG
light 2: SSELTQPPSVSGAPGQRVTISCAGSLSNIGAGYDVHWYQQLPGTAPKLLIYGNINRLSGVPERFSGSKSGTSASLAITGLQAEDGADYYCQSYDSSLSSYVFGTGTKVTVLGQPKAAPSVTLFPPSSEELQANKATLVCLISDFYPGAVTVAWKADSSPVKAGVETTTPSKQSNNKYAASSYLSLTPEQWKSHRSYSCQVTHEGSTVEKTVAPTECS
notes: FAB-A: CD3B891 (CD3B376 - K477); FAB-B: PSMB890
Consider B1, for which the figures for the EC50 in experiment [1] and in experiment [2] were at least 60 nM and 60 nM, respectively.
